Experiments:
[1] = molecular target: T1, Rhesus macaque CD4-HIS (Acro Biosystems, Cat. CD4-C52H7) (rhesus macaque, UniProt P16003 26-390); test: BLI Octet, mAb on anti-mouse Fc sensor, rhesus CD4-HIS 25-100 nM, 1:1 global fit;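 further: purified antibodies captured at 10 µg/mL, rhesus CD4 analyte run as a three-concentration serial dilution, irrelevant antibody as reference control, one kinetic constant set per antibody from global fitting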
T1 construct: Bought reagent; also called Rhesus CD4; rhesus CD4-HIS; not shown: His tag

[2] = molecular target: T2, Rhesus macaque CD4-HIS (Acro Biosystems, Cat. CD4-C52H7) (rhesus macaque, UniProt P16003 26-390); test: BLI (Octet Red384); Ab on anti-mouse Fc (AMC) sensor; rhesus CD4-HIS 100/50/25 nM; global 1:1 fit;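 further: antibodies loaded at 10 µg/mL, an unrelated mouse-derived antibody served as internal reference, curves fit over association and dissociation phases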
T2 construct: Bought reagent; also called Rhesus CD4; rhesus CD4-HIS; not shown: His tag

| Binder | Kd [1] [nM] | Response [1] | koff [1] [s⁻¹] | kon [1] [M⁻¹ s⁻¹] | Kd [2] [nM] | Response [2] | koff [2] [s⁻¹] | kon [2] [M⁻¹ s⁻¹] |
| --- | --- | --- | --- | --- | --- | --- | --- | --- |
| 75110_04F22A (antibody, V domains shown, Tested as antibody purified from AlivaMab Mouse hybridoma supernatant (captured by anti-mouse IgG Fc)) VH: EVQLVESGGGLVQPGGSLRLSCAASGFTFSSYDIHWVRQATGKGLEWVSTIGTAGDTYYPGSVKGRFTISRENAKNSLYLQMNSLRAGDTAVYYCARGGYYYYGMDVWGQGTTVTVSS VL: EIVLTQSPGTLSLSPGERATLSCRASQSVYSSYLAWYQQKPGQAPRLLIYGASSRATGIPDRFSGSGSGTDFTLTISRLEPEDFAVYYCQQFGTSPFTFGPGTKVDIK | 7.2 | 0.04 | 0.0011 | 150000 | – | – | – | – |
| 75110_01N04A (antibody, V domains shown, Tested as antibody purified from AlivaMab Mouse hybridoma supernatant (captured by anti-mouse IgG Fc)) VH: EVQLVESGGGLVQPGGSLRLSCAASGFTFSNYDMHWVRQATGKGLEWVSTIGTAGDTYYPGSVKGRFTISRENAKNSLYLQMNSLRAGDTAVYYCARGGDFYYGLDVWGQGTTVTVSS VL: not shown | 0.035 | 0.02 | 0.0061 | 1.7e+08 | – | – | – | – |
| 75110_01G11A (antibody, V domains shown, Tested as antibody purified from AlivaMab Mouse hybridoma supernatant (captured by anti-mouse IgG Fc)) VH: EVQLVESGGGLVQPGGSLRLSCAASGFTFSSYDMHWVRQATGKGLEWVSTIGTAGDTYYPGSVKGRFTISRENARNSLFLQMNSLRAGDTAVYYCARGGDYYYGMDVWGQGTTVTVSS VL: EIVLTQSPGTLSLFPGERATLSCRASQNTYSSYLAWYQQKPGQAPRLLIYGASNRATGIPDRFSGSGSGTDFTLTISRLEPEDFAVYYCQQHGTSPFTFGPGTKVDIK | 64 | 0.03 | 0.0018 | 28000 | – | – | – | – |
| 75110_01D24A (antibody, V domains shown, Tested as antibody purified from AlivaMab Mouse hybridoma supernatant (captured by anti-mouse IgG Fc)) VH: QVQLQQWGAGLLKPSETLSLTCAVYGGSFSGYYWSWIRQPPGKGLEWIGEINHSGSTNYNPSLKSRVTISVDTSENQFSLKLNSVTAADTAVYYCARLVNWFDPWGQGTLVTVSS VL: EIQMTQSPSSVSASVGDRVTITCRASQDISNWLAWYQQKPGKAPNLLIFAASSLQTGVPSRFSGSGSGTDFTLTISSLQPDDFATYYCQQANSFPYSFGQGTNLGIK | 340 | 0.08 | 0.064 | 190000 | – | – | – | – |
| 75110_03L12A (antibody, V domains shown, Tested as antibody purified from AlivaMab Mouse hybridoma supernatant (captured by anti-mouse IgG Fc)) VH: QVQLQQWGAGLLKPSETLSLTCAVYGGSFSGYYWSWIRQPPGKGLEWIGEINHSGSTNYNPSLKSRVTISVDTSENQFSLTLISVTAADTAVYYCVRLINWFDPWGQGTLVTVSS VL: DIQMTQSPSSVSASVGDRVTITCRASQDISNWLAWYQQKPGKAPKLLIFAASSLQSGVPSRFSGSGSGTDFTLTISSLQPDDFATYYCQQANSFPYTFGQGTNLGIK | 72 | 0.08 | 0.016 | 220000 | – | – | – | – |
| 75110_02E22A (antibody, V domains shown, Tested as antibody purified from AlivaMab Mouse hybridoma supernatant (captured by anti-mouse IgG Fc)) VH: QVQLQESGPGLVKPSETLSLTCTVSGGSISSFYWSWIRQPAGKGLEWIGRIYTSGSTNYNPSLKSRVTMSVDTSKNQFSLKLSSVTAADTAVYYCARELEKRNYYGMDVWGQGTTVTVSS VL: DIQMTQSPSSLSASVGDRVTITCQASHDISNYLNWYQQKPGKAPKLLIFDASTLETGVPSRFSGSGSGTYFTFTIRSLQPEDIATYYCQQYDSLPLTFGGGTKVEIK | 51 | 0.15 | 0.0044 | 87000 | – | – | – | – |
| 75110_14N19A (antibody, V domains shown, Tested as antibody purified from AlivaMab Mouse hybridoma supernatant (human variable domains, kappa; mouse Fc, captured on anti-mouse IgG Fc sensors); also called ADS75110 purified AMM Ab) VH: QVQLQESGPGLVKPSETLSLTCTVSGGSISRYYWSWIRQPAGKGLEWIGRICTSENPNYNPALKSRVTMSVDTSKNQFSLKLSSVTAADTAVYYCARELERLNYYGMDVWGQGTTVTVSS VL: DIQMTQFPSSLSASVGDRVTITCQASQDISNYLNWYQQKPGKAPKLLIYDASNLESGVPSRFSGRGSGTDFTFTISSLQPEDFATFYCQQYDTLPITFGQGTRLEIK | – | – | – | – | 14 | 0.17 | 0.0021 | 150000 |
| 75110_02I16A (antibody, V domains shown, Tested as antibody purified from AlivaMab Mouse hybridoma supernatant (captured by anti-mouse IgG Fc)) VH: QVQLQQWGAGLLKPSETLSLTCDVYGGSFSGYYWTWIRQPPGKGLEWIGEINHSGTTNSNPSLKSRVTISVDTSKSQFSLRLSSVTAADTAVYFCTRELNWFDPWGQGTLVTVSS VL: DIQMTQSPSSVSASVGDRVTITCRASQDIANWLAWYQQKPGKAPQLLIYAASSLLGGVPSRFSGSGSGADFTLTISSLHPEDFATYYCQQANSFPYTFGQGTKLEIK | 37 | 0.14 | 0.0092 | 250000 | – | – | – | – |
| 75110_02E08A (antibody, V domains shown, Tested as antibody purified from AlivaMab Mouse hybridoma supernatant (captured by anti-mouse IgG Fc)) VH: QVQLQESGPGLVKPSETLSLTCTVSGGSISTYYWTWIRQPAGKGLEWIGRVYTSGDTNYNPSLKSRVAMSLDTSKNQFSLKLSSVTAADTAVYYCARDSGALYSWNYGDAFDIWGQGTMVTVSS VL: DIQMTQSPSAMSASVGDRVTITCRASQDISNYLAWFQQKPGKVPKRLIYAASSLQSGVPSRFSGSGSGTEFTLTISSLQPEDFATYYCLQHNSYPRTFGQGTKVEIK | 12 | 0.04 | 0.00091 | 79000 | – | – | – | – |
| 75110_01A06A (antibody, V domains shown, Tested as antibody purified from AlivaMab Mouse hybridoma supernatant (captured by anti-mouse IgG Fc)) VH: EVQLVESGGGLVQPGGSLRLSCAASGFTFSSYWMSWVRQAPGKGLEWVANINEDGNEKYYVDSVKGRLTISRDNAKNSLYLQMNSLRAEDTAVYFCAREGGQWLSLDYWGQGALVTVSS VL: DIQMTQSPSSVSASVGDRVSITCRASQGISSWLAWYQQKPGKAPKILIYGASSLQSGVPSRFSGSGSGTDFTLTISSLQPEDFATYYCQQANSFPWTFGQGTKVEIK | 7.8 | 0.39 | 0.001 | 130000 | – | – | – | – |
| 75110_01J09A (antibody, V domains shown, Tested as antibody purified from AlivaMab Mouse hybridoma supernatant (captured by anti-mouse IgG Fc)) VH: EVQLVESGGGLVQPGGSLRLSCVASGFTFSSYWMSWVRQAPGKGLEWVANTKEDGSDKYYVDSVKGRFTICRDNAKNSLYLQMNSLRAEDTAVYYCAREGGQWLALDYWGQGTLVTVSS VL: DIQMTQSPSSVSASVGDRVTINCRASQGISSWLAWYQQKPGKAPNLLIFGASSLQSGVPSRFSGSGFGTDFSLTITTLQPEDFATYHCQQANSFPWTFGQGTKVEIK | 70 | 0.17 | 0.0032 | 46000 | – | – | – | – |
| 75110_01H18A (antibody, V domains shown, Tested as antibody purified from AlivaMab Mouse hybridoma supernatant (captured by anti-mouse IgG Fc)) VH: QVQLQQWGAGLLKPSETLSLTCAVYGGSFSGYYWSWIRQSPGKGLEWIGEINQSGSTNYNPSLKSRVTISVDTSKNQFSLKLSSVTAADTAVYYCARVINWFDSWGQGTLVTVSS VL: DIQMTQSPSSVSASVGDRVTITCRASQGISSWLAWYQQKPGKAPKLLIYAASSFQSGVPSRFSGSGSGTDFTLTISSLQTEDFATYYCQQANSFPYTFGQGTRLEIK | 130 | 0.11 | 0.017 | 130000 | – | – | – | – |
| 75110_03C01A (antibody, V domains shown, Tested as antibody purified from AlivaMab Mouse hybridoma supernatant (captured by anti-mouse IgG Fc)) VH: QVQLQQWGAGLLKPSETLSLTCAVYGGSFSGYYWSWIRQSPGKGLEWIGEINQSGSTNYNPSLKSRVTISVDTSKDQFSLKLSSVTAADTAVYYCARVINWFDSWGQGSLVTVSS VL: DIQMTQSPSSVSASVGDRVTITCRASQGISSWLAWYQQKPGNAPKLLIYDASSFQSGVPSRFSGSGSGTDFTLTISSLQTEDFATYYCQQANSFPYTFGQGTKLEIK | 9.8 | 0.18 | 0.0027 | 280000 | – | – | – | – |
| 75110_03D16A (antibody, V domains shown, Tested as antibody purified from AlivaMab Mouse hybridoma supernatant (captured by anti-mouse IgG Fc)) VH: EVQLVESGGGLVQPGGSLRLSCAASGFTFSSYWMSWVRQAPGKGLEWVANINQDGGEKYYVDSVKGRFTISRDNAKNSLYLQMNSLRAEDTAVYYCVREGGQWLALDYWGQGTLVTVSS VL: DIQMTQSPSSVSASVGDRVTITCRASQGISSWLTWYQQKPGKAPKFLIYAASSLQSGVPSRFSGSGFGTDFTLTISSLQPEDFATYYCQQANSFPWTFGQGTKVEIK | 12 | 0.1 | 0.002 | 160000 | – | – | – | – |

The remaining binders from weak to strong by Kd [1], led by results:

| Kd [1] [nM] | Response [1] | koff [1] [s⁻¹] | kon [1] [M⁻¹ s⁻¹] | Kd [2] [nM] | Response [2] | koff [2] [s⁻¹] | kon [2] [M⁻¹ s⁻¹] | Binder |
| --- | --- | --- | --- | --- | --- | --- | --- | --- |
| 48 | 0.17 | 0.0032 | 67000 | – | – | – | – | 75110_04K10A (antibody, V domains shown, Tested as antibody purified from AlivaMab Mouse hybridoma supernatant (captured by anti-mouse IgG Fc)) VH: EVQLVESGGGLVQPGGSLRLSCAASGFTFSSYWMSWVRQAPGKGLEWVANINQDGSEKYYVDSVKGRFTISRDNAKNSLYLQLNSLRAEDTAMYYCAREGGQWLSLDYWGQGTLVTVSS VL: DIQMTQSPSSVSASVGDRVTITCRASQGISSWLAWYQQKPGKAPKVLIYGVSSFQSGVPSRFSGSGSGTDFILTISSLQPEDFATYYCQQANSFPWTFGQGTKVEIK |
| 26 | 0.13 | 0.0015 | 59000 | – | – | – | – | 75110_02K11A (antibody, V domains shown, Tested as antibody purified from AlivaMab Mouse hybridoma supernatant (captured by anti-mouse IgG Fc)) VH: QVQLQESGPGLVKPSQTLSLTCTVSGGSISSGFYYWTWIRQHPGKGLEWIGYISYSGNTYYNPSFKSRLTISVDTSKSQFSLKLSSVTAADTAVYYCARDRPSNFDAFDIWGQGTMVTVSS VL: not shown |
| 22 | 0.05 | 0.0017 | 79000 | – | – | – | – | 75110_01J17A (antibody, V domains shown, Tested as antibody purified from AlivaMab Mouse hybridoma supernatant (captured by anti-mouse IgG Fc)) VH: EVQLVESGGGLVQPGGSLRLSCAASGFTFSSYDMHWVRQGTGKGLEWVSTIGTADDTYYPGSVKGRFTISRENAENSLYLQMNSLRAGDTAVYYCARGGDYYYGMDVWGQGTTVTVSS VL: EIVLAQSPGTLSLSPGERATLSCRASQSVYISYLAWYQQKPGQAPRLLIYGASSRATGIPDRFSGSGSGTDFTLTITRLEPEDFAVYYCQQFGSSPFTFGPGTKVDFK |
| 14 | 0.29 | 0.0026 | 190000 | – | – | – | – | 75110_02N15A (antibody, V domains shown, Tested as antibody purified from AlivaMab Mouse hybridoma supernatant (captured by anti-mouse IgG Fc)) VH: EVQLVESGGGLVQPGGSLRLSCAASGFTFSSYWMSWVRQAPGKGLEWVANINEDGNEKYYVDSVKGRFTISRDNAKNSLFLQMNSLRAEDTAVYFCAREGGQWLALDHWGQGALVTVSS VL: DIQMTQSPSSVSASVGDRVTITCRASQGISSWLAWYQQKPGKAPKFLISGASSLQSGVPSRFSGSGSGTDFTLTISSLQPEDFATYYCQQANSFPWTFGQGTKVEFK |
| 8.1 | 0.06 | 0.0011 | 140000 | – | – | – | – | 75110_01L08A (antibody, V domains shown, Tested as antibody purified from AlivaMab Mouse hybridoma supernatant (captured by anti-mouse IgG Fc)) VH: QVQLQESGPGLVKPSETLSLTCTVSGGSISHYYWSWIRQPPGKGLEWIGYIHYSGTTNYNPSLKSRVTISVDTSKNQLSLKLRSVTAADTAVYYCARDQGFSSGGMDVWGQGTTVTVSS VL: not shown |
| 0.98 | 0.1 | 0.00014 | 140000 | – | – | – | – | 75110_01E08A (antibody, V domains shown, Tested as antibody purified from AlivaMab Mouse hybridoma supernatant (captured by anti-mouse IgG Fc)) VH: EVQLVESGGGLVQPGGSLRLSCAASGFTFNNYDMHWVRQATGKGLEWVSTIGTAGDTYYPASVKGRFTIYRENAKNSLYLQMNSLRAGDTAVYYCARGGDYYYGMDVWGQGTTVTVSS VL: not shown |

Source: patent US20220112288A1 (published 2022)
